Results reported in US20230192840A1.

Legend:
[1] = biological target: human Claudin18.2 (human) (UniProt P56856); assay: flow cytometry (IntelliCyt) on Ba/F3-Claudin 18.2 cells
[2] = biological target: human Claudin18.2 (human) (UniProt P56856); assay: cell-based or functional assay

B1: humanized antibody 1E9.2-hz15 (antibody, human IgG1, kappa, V domains shown)
VH: EVQLVESGGGLVKPGGSLRLSCAASGFSFSNSAMSWVRQAPGKGLEWVSTISSGDSYTYYADSVKGRFTISRDNAKNSLYLQMNSLRAEDTAVYYCARQGYGNALDYWGQGTLVTVSS
VL: DIVMTQTPLSLPVTPGEPASISCKSSQSLLNSGNQKNYLTWYLQKPGQSPQLLIYWSSTRESGVPDRFSGSGSGTDFTLKISRVEAEDFGVYYCQNDYYYPLTFGGGTKVEIKR
- Max MFI [1]: 8.99e+06 MFI
- ADCC EC50 [2]: 0.08 µg/mL
- ADCC Max killing rate % [2]: 66.2%

B2: humanized antibody 1E9.2-hz17 (antibody, human IgG1, kappa, V domains shown)
VH: EVQLVESGGGLVKPGGSLRLSCAASGFSFSNSAMSWVRQAPGKGLEWVSTISSGDSYTYYADSVKGRFTISRDNAKNSLYLQMNSLRAEDTAVYYCARQGYGNALDYWGQGTLVTVSS
VL: DIVMTQTPLSLPVTPGEPASISCKSSQSLLQSGNGKNYLTWYLQKPGQSPQLLIYWSSTRESGVPDRFSGSGSGTDFTLKISRVEAEDFGVYYCQNDYYYPLTFGGGTKVEIKR
- Max MFI [1]: 5.9e+06 MFI
- ADCC EC50 [2]: 0.113 µg/mL
- ADCC Max killing rate % [2]: 59.6%
